Assays:
[1] = target: CapP-His (full-length CapP, BC1280, with C-terminal polyhistidine tag) (Bacillus cereus ATCC14579) (UniProt Q81GC7); test: native gel or EMSA; native PAGE (Any kD Mini-PROTEAN TGX), 25 mM tris, 192 mM glycine, 200 V, NativeMark marker, Coomassie; second SEC peak
[2] = target: the molecule itself; test: as above

For “CapP-His (full-length CapP, BC1280, with C-terminal polyhistidine tag) (from UniProt Q81GC7 1-279) (natural protein)”, the stoichiometry N [1] was 15.

B1: N-domain(39-190)-His of CapP (domain or fragment)
chain: AAFIHETKVEATLSTAIIFPKTVNTLKEQSEKHKQFIEREYGTMKGKLKATSIEEIKQAISVWQQGREKIVAEKEALQNVYTEIEAPYNQIQEELKVNKDESMQQVSIYVNEGFRSIKEKRDYIEKEISLKAIDEQIQALQQQLNVAIEAEG
notes: CapP (BC1280) of Bacillus cereus ATCC14579, residues A39 to G190 (N-terminal domain); also called N-terminal domain; N-terminal construct; source: E. coli Lemo21 (DE3) pLysS, pET24b, purified under native conditions (HisTrap, Superdex 75 SEC); not shown: His6, C-terminal, kept
With B1 the “stoichiometry N” value [2] was about 15.
